From patent US20240301086A1 (APTEVO RESEARCH AND DEVELOPMENT, published 2024)
Each block holds one binder with its values, some of them ahead of it.

Legend:
[1] = molecular target: T1, Full-length Human PSMA (TSC435), on cells (human, UniProt Q04609 1-750); test: flow cytometry on C4-2B cells, PE goat anti-human IgG Fc secondary, MFI (median)
T1 construct: also called CHOK1SV/huPSMA; PSMA on C4-2B, 22RV1, LNCaP, MDA-PCa-2b cells
Description: The PSMA-binding domain PSMA01023 was evaluated in several different structural formats, including an alternative Fc region with different mutations to eliminate effector function. The PSMA01023 binding domain was configured in scFv-Fc format in VL-VH (PSMA01036) and VH-VL (PSMA01037) orientations and in Fc-scFv format in VL-VH (PSMA01040) and VH-VL (PSMA01041) orientations. These molecules were evaluated for the impact of the orientation of the scFv domains (VH-VL versus VL-VH) and position on the Fc (N- vs. C-terminus) on binding to PSMA (+) tumor cells.
C4-2B and 22RV1 cells were labelled at approximately 100,000 cells per well, in 96-well plates, with serial dilutions of PSMA-binding constructs ranging from of 0.1 to 300 nM for 30 min on ice, followed by washes and incubation with PE-labeled minimum cross species reactive secondary antibody, goat anti-human IgG Fcγ, F(ab′)2 (Jackson Laboratory) for 30 minutes on ice. Washes and incubation were done in staining buffer (PBS with 0.2% BSA and 2 mM EDTA). Cells were collected using a BDM LSRII or a BD FACSymphony™ flow cytometer (BD Biosciences) and analyzed by FlowJo flow cytometry analysis software. Median fluorescence intensity (MFI) of bound molecules on cells was determined after exclusion of doublets. Graphs were plotted using GraphPad Prism 7®.

[2] = molecular target: T1, Full-length Human PSMA (TSC435), on …; test: as above; remark: listed apart in the source
[3] = molecular target: T2, human CD3ε in the TCR/CD3 complex on Jurkat cells (human, UniProt P07766 23-207); test: flow cytometry on Jurkat cells, PE goat anti-human IgG Fc secondary, MFI (median)
T2 construct: whole, on cells; On the cells it stands in the whole TCR/CD3 complex; also called CD3 (+) cells; CD3-expressing Jurkat cells
T2 sequence (P07766 23-207, one chain of several): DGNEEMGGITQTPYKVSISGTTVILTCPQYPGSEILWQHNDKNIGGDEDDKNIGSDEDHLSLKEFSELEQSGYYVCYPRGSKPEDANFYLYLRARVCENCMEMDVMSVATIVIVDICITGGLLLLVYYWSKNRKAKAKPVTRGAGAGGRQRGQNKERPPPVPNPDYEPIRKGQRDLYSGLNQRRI

T1 sequence (Q04609 whole entry): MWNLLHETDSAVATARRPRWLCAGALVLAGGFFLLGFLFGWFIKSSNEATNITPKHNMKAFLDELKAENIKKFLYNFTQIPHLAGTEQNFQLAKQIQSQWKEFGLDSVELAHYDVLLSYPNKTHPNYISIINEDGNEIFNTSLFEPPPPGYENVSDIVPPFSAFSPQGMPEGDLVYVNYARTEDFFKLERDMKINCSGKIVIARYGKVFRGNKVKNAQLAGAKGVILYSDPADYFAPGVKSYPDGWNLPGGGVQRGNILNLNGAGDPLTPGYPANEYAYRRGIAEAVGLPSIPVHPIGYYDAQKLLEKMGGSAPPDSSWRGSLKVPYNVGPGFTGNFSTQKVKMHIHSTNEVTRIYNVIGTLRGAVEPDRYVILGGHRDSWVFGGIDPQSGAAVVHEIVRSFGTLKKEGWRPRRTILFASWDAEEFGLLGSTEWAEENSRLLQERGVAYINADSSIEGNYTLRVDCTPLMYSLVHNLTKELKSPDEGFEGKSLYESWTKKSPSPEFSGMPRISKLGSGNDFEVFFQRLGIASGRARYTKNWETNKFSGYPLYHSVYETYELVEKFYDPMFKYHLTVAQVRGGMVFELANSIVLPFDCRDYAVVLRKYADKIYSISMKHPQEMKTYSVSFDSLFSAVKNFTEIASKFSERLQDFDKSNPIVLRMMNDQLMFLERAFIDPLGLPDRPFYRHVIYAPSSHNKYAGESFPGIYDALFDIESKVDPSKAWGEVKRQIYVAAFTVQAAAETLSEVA

B1: PSMA01036 Anti-PSMA scFv-Fc (Fc fusion)
chain: DIQMTQSPSTLSASVGDRVTITCRASKSISKYLAWYQQKPGKAPKLLIHSGSSLESGVPSRFSGSGSGTEFTLTISSLQPDDFATYYCQQHIEYPWTFGQGTKVEIKGGGGSGGGGSGGGGSGGGGSQVQLVQSGAEVKKPGASVKVSCKASGYTFTDYYMHWVRQAPGQGLEWMGYFNPYNDYTRYAQKFQGRVTMTRDTSTSTVYMELSSLRSEDTAVYYCARSDGYYDAMDYWGQGTTVTVSSSEPKSSDKTHTCPPCPAPPAAAPSVFLFPPKPKDTLMISRTPEVTCVVVDVSHEDPEVKFNWYVDGVEVHNAKTKPREEQYNSTYRVVSVLTVLHQDWLNGKEYKCAVSNKALPAPIEKTISKAKGQPREPQVYTLPPSRDELTKNQVSLTCLVKGFYPSDIAVEWESNGQPENNYKTTPPVLDSDGSFFLYSKLTVDKSRWQQGNVFSCSVMHEALHNHYTQKSLSLSPGK
- binding result [1]: binds

B2: PSMA01037 Anti-PSMA scFv-Fc (Fc fusion)
chain: QVQLVQSGAEVKKPGASVKVSCKASGYTFTDYYMHWVRQAPGQGLEWMGYFNPYNDYTRYAQKFQGRVTMTRDTSTSTVYMELSSLRSEDTAVYYCARSDGYYDAMDYWGQGTTVTVSSGGGGSGGGGSGGGGSGGGGSDIQMTQSPSTLSASVGDRVTITCRASKSISKYLAWYQQKPGKAPKLLIHSGSSLESGVPSRFSGSGSGTEFTLTISSLQPDDFATYYCQQHIEYPWTFGQGTKVEIKSSSEPKSSDKTHTCPPCPAPPAAAPSVFLFPPKPKDTLMISRTPEVTCVVVDVSHEDPEVKFNWYVDGVEVHNAKTKPREEQYNSTYRVVSVLTVLHQDWLNGKEYKCAVSNKALPAPIEKTISKAKGQPREPQVYTLPPSRDELTKNQVSLTCLVKGFYPSDIAVEWESNGQPENNYKTTPPVLDSDGSFFLYSKLTVDKSRWQQGNVFSCSVMHEALHNHYTQKSLSLSPGK
notes: also called PSMA010137
- binding result [1]: binds

B3: PSMA01040 Fc-linker anti PSMA scFv (Fc fusion)
chain: SSEPKSSDKTHTCPPCPAPPAAAPSVFLFPPKPKDTLMISRTPEVTCVVVDVSHEDPEVKFNWYVDGVEVHNAKTKPREEQYNSTYRVVSVLTVLHQDWLNGKEYKCAVSNKALPAPIEKTISKAKGQPREPQVYTLPPSRDELTKNQVSLTCLVKGFYPSDIAVEWESNGQPENNYKTTPPVLDSDGSFFLYSKLTVDKSRWQQGNVFSCSVMHEALHNHYTQKSLSLSPGGGGSPSDIQMTQSPSTLSASVGDRVTITCRASKSISKYLAWYQQKPGKAPKLLIHSGSSLESGVPSRFSGSGSGTEFTLTISSLQPDDFATYYCQQHIEYPWTFGQGTKVEIKGGGGSGGGGSGGGGSGGGGSQVQLVQSGAEVKKPGASVKVSCKASGYTFTDYYMHWVRQAPGQGLEWMGYFNPYNDYTRYAQKFQGRVTMTRDTSTSTVYMELSSLRSEDTAVYYCARSDGYYDAMDYWGQGTTVTVSSR
- binding result [1]: binds

Now from value to binder:

- EC50 [2]: 1 nM
- EC50 [3]: > 261 nM
B4: PSMA01086 Anti PSMA scFv x Fc; Anti PSMA scFv x Fc x linker x Anti CD3 scFv (bispecific antibody)
chain 1: QVQLVQSGAEVKKPGASVKVSCKASGYTFTDYYMHWVRQAPGQGLEWMGYFNPYNDYTRYAQKFQGRVTMTRDTSTSTVYMELSSLRSEDTAVYYCARSDGYYDAMDYWGQGTTVTVSSGGGGSGGGGSGGGGSGGGGSDIQMTQSPSSLSASVGDRVTITCRASKSISKYLAWYQQKPGKAPKLLIHSGSSLESGVPSRFSGSGSGTEFTLTISSLQPDDFATYYCQQHIEYPWTFGQGTKVEIKEPKSSDKTHTCPPCPAPPAAAPSVFLFPPKPKDTLMISRTPEVTCVVVDVSHEDPEVKFNWYVDGVEVHNAKTKPREEQYNSTYRVVSVLTVLHQDWLNGKEYKCAVSNKALPAPIEKTISKAKGQPREPQVYTLPPSRDELTKNQVSLWCLVKGFYPSDIAVEWESNGQPENNYKTTPPVLDSDGSFFLYSKLTVDKSRWQQGNVFSCSVMHEALHNHYTQKSLSLSPG
chain 2: QVQLVQSGAEVKKPGASVKVSCKASGYTFTDYYMHWVRQAPGQGLEWMGYFNPYNDYTRYAQKFQGRVTMTRDTSTSTVYMELSSLRSEDTAVYYCARSDGYYDAMDYWGQGTTVTVSSGGGGGGGGSGGGGSGGGGSDIQMTQSPSSLSASVGDRVTITCRASKSISKYLAWYQQKPGKAPKLLIHSGSSLESGVPSRFSGSGSGTEFTLTISSLQPDDFATYYCQQHIEYPWTFGQGTKVEIKEPKSSDKTHTCPPCPAPPAAAPSVFLFPPKPKDTLMISRTPEVTCVVVDVSHEDPEVKFNWYVDGVEVHNAKTKPREEQYNSTYRVVSVLTVLHQDWLNGKEYKCAVSNKALPAPIEKTISKAKGQPREPQVYTLPPSRDELTKNQVSLSCAVKGFYPSDIAVEWESNGQPENNYKTTPPVLDSDGSFFLVSKLTVDKSRWQQGNVFSCSVMHEALHNRFTQKSLSLSPGGGGSPSDIQMTQSPSSLSASVGDRVTITCRASSSVSYMNWYQQKPGKAPKRWIYDSSKLASGVPSRFSGSGSGTDFTLTISSLQPEDFATYYCQQWSRNPPTFGQGTKVEIKGGGGSGGGGSGGGGSGGGGSQVQLVQSGAEVKKPGASVKVSCKASGYTFTRSTMHWVRQAPGQGLEWIGYINPSSAYTNYAQKFQGRVTLTADKSTSTAYMELSSLRSEDTAVYYCASPQVHYDYNGFPYWGQGTLVTVSS

- binding result [1]: binds
B5: PSMA01041 Fc-linker-anti PSMA scFv (Fc fusion)
chain: SSEPKSSDKTHTCPPCPAPPAAAPSVFLFPPKPKDTLMISRTPEVTCVVVDVSHEDPEVKFNWYVDGVEVHNAKTKPREEQYNSTYRVVSVLTVLHQDWLNGKEYKCAVSNKALPAPIEKTISKAKGQPREPQVYTLPPSRDELTKNQVSLTCLVKGFYPSDIAVEWESNGQPENNYKTTPPVLDSDGSFFLYSKLTVDKSRWQQGNVFSCSVMHEALHNHYTQKSLSLSPGGGGSPSQVQLVQSGAEVKKPGASVKVSCKASGYTFTDYYMHWVRQAPGQGLEWMGYFNPYNDYTRYAQKFQGRVTMTRDTSTSTVYMELSSLRSEDTAVYYCARSDGYYDAMDYWGQGTTVTVSSGGGGSGGGGSGGGGSGGGGSDIQMTQSPSTLSASVGDRVTITCRASKSISKYLAWYQQKPGKAPKLLIHSGSSLESGVPSRFSGSGSGTEFTLTISSLQPDDFATYYCQQHIEYPWTFGQGTKVEIKR
